No end group written: not given here.

This passage reports ELISA signal results from US20170298096A1 (CANIMGUIDE THERAPEUTICS, published 2017).

The labels stand for the following.
T1: His-tagged P3028 (human, not fully specified)
T1 construct: the tag is put first after 'PGE73=His-tag-P3028'; also called PGE73; not shown: His-tag
T1 peptide: {His‑tag}-VFDEFKPLVEEPQNLIK

The experiment has as its target T1, His-tagged P3028. Put plainly: chip ELISA. (In general: In an ELISA, binding on a coated surface is turned into a signal by an enzyme label.)
The molecule KKLDTFAVKLSLFTER [P28R F7A] displayed an ELISA signal of 426. To KKLDTFSVKLSLFTER [P28R F7S] belongs 700.

The molecule KKLDTFVVKLSLFTER [P28R F7V] registered an ELISA signal of 527. For KKLDTFFVKLSLMTER [P28R F13M] the value was 1190. For KKLDTFRVKLSLFTER [P28R F7R] the value was 369; for KKLDTFLVKLSLFTER [P28R F7L], 517. For the molecule KKLDTFFVKLSLITER [P28R F13I], the ELISA signal is 468. As to KKLDTFFVKLSLETER [P28R F13E], the ELISA signal turned out to be 98. Consider KKLDTFFVKLSLKTER [P28R F13K], for which the ELISA signal worked out at 220. KKLDTFFVKLSLNTER [P28R F13N] displayed an ELISA signal of 862. KKLDTFDVKLSLFTER [P28R F7D] had an ELISA signal of 301. The molecule KKLDTFTVKLSLFTER [P28R F7T] yielded an ELISA signal of 517. KKLDTFIVKLSLFTER [P28R F7I] registered an ELISA signal of 446. To KKLDTFFVKLSLHTER [P28R F13H] belongs 1050; to KKLDTFFVKLSLQTER [P28R F13Q], 1140. KKLDTFNVKLSLFTER [P28R F7N] came in with an ELISA signal of 348. The molecule KKLDTFMVKLSLFTER [P28R F7M] gave an ELISA signal of 712. To KKLDTFWVKLSLFTER [P28R F7W] belongs 380.

KKLDTFQVKLSLFTER [P28R F7Q] came in with an ELISA signal of 511. Molecule KKLDTFYVKLSLFTER [P28R F7Y] registered an ELISA signal of 334.

Molecule KKLDTFFVKLSLLTER [P28R F13L] yielded an ELISA signal of 448.

KKLDTFKVKLSLFTER [P28R F7K]: the ELISA signal turned out to be 232. KKLDTFFVKLSLATER [P28R F13A] came in with an ELISA signal of 525.

For the molecule KKLDTFEVKLSLFTER [P28R F7E], the ELISA signal worked out at 381. To KKLDTFFVKLSLDTER [P28R F13D] belongs 112; to KKLDTFHVKLSLFTER [P28R F7H], 364.
